According to patent publication US20230060095A1 (Regeneron, published 2023):
Residue numbers refer to the chain shown, from its start.

B1: PN42707 (TCR, V domains shown)
V domain 1: GESVGLHLPTLSVQEGDNSIINCAYSNSASDYFIWYKQESGKGPQFIIDIRSNMDKRQGQRVTVLLNKTVKHLSLQIAATQPGDSAVYFCAENKRDNYGQNFVFGPGTRLSVLP
V domain 2: EAQVTQNPRYLITVTGKKLTVTCSQNMNHEYMSWYRQDPGLGLRQIYYSMNVEVTDKGDVPEGYKVSRKEKRNFPLILESPSPNQTSLYFCASSFWVNTEAFFGQGTRLTVV
B2: PN42746 (TCR, V domains shown)
V domain 1: B1 V domain 1 with K94R, R95Q
V domain 2: B1 V domain 2 with F95L
B3: PN42712 (TCR, V domains shown)
V domain 1: GIQVEQSPPDLILQEGANSTLRCNFSDSVNNLQWFHQNPWGQLINLFYIPSGTKQNGRLSATTVATERYSLLYISSSQTTDSGVYFCAVGSSNDYKLSFGAGTTVTVRA
V domain 2: EAQVTQNPRYLITVTGKKLTVTCSQNMNHEYMSWYRQDPGLGLRQIYYSMNVEVTDKGDVPEGYKVSRKEKRNFPLILESPSPNQTSLYFCASSPGTGGFSPLHFGNGTRLTVT
B4: PN42711 (TCR, V domains shown)
V domain 1: B3 V domain 1 with A17V, Q78R, D94G
V domain 2: B3 V domain 2
B5: PN42762 (TCR, V domains shown)
V domain 1: DAKTTQPNSMESNEEEPVHLPCNHSTISGTDYIHWYRQLPSQGPEYVIHGLTSNVNNRMASLAIAEDRKSSTLILHRATLRDAAVYYCILNTGTASKLTFGTGTRLQVTL
V domain 2: B1 V domain 2 with F95L, W96S, V97S
B6: PN42774 (TCR, V domains shown)
V domain 1: QKEVEQNSGPLSVPEGAIASLNCTYSDRGSQSFFWYRQYSGKSPELIMSIYSNGDKEDGRFTAQLNKASQYVSLLIRDSQPSDSATYLCAVNRGTDKLIFGTGTRLQVFP
V domain 2: DAGVTQSPTHLIKTRGQQVTLRCSPKSGHDTVSWYQQALGQGPQFIFQYYEEEERQRGNFPDRFSGHQFPNYSSELNVNALLLGDSALYLCASSWTDYGYTFGSGTRLTVV
B7: PN42795 (TCR, V domains shown)
V domain 1: RKEVEQDPGPFNVPEGATVAFNCTYSNSASQSFFWYRQDCRKEPKLLMSVYSSGNEDGRFTAQLNRASQYISLLIRDSKLSDSATYLCVVNGGSQGNLIFGKGTKLSVKP
V domain 2: B6 V domain 2 with W95V, T96G

Target: T1, soluble HLA:A2:PRAME (425-433) tetramer (human)
T1 construct: Commercial tetramer (MBL International); construct limits, biotin tag and streptavidin/fluorophore not described; also called PRAME/HLA tetramer reagent; PRAME (425-433)/HLA-A2
Experiment: flow cytometry, soluble pMHC tetramer on CHO cells expressing the TCR;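 further: CHO cells transfected with vectors encoding full-length paired TCR alpha and beta chains, stained with PRAME/HLA tetramer and read by flow cytometry, each value reflects one listed TCR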

| Binder | Cell Frequency ≥1000 MFI, ≥1% (% tetramer positive cells in the Ag+ gate) |
| --- | --- |
| B1 | 7.28% |
| B2 | 4.39% |
| B3 | 80.7% |
| B4 | 4.26% |
| B5 | 4.95% |
| B6 | 91.6% |
| B7 | 49.4% |

Target: HLA-A2/PRAME (425-433) on HLA-A2*01 HEK293T cells pulsed with PRAME 425-433 peptide (human)
Experiment: cell-based or functional assay

| Binder | EC50 (µM) of peptide, AP1 luciferase reporter in Jurkat cells expressing the TCR |
| --- | --- |
| B1 | 0.0118 µM |
| B2 | 0.046 µM |
| B3 | 0.0133 µM |
| B4 | 0.0569 µM |
| B5 | 115 µM |
| B6 | 0.876 µM |
| B7 | 0.245 µM |

Target: T2, PRAME peptide on HLA-A*02:01 (human)
T2 peptide: SLLQHLIGL
Experiment: multimer staining

| Binder | binding result |
| --- | --- |
| B1 | recognises |
| B2 | recognises |
| B3 | recognises |
| B4 | recognises |
| B5 | recognises |
| B6 | recognises |
| B7 | recognises |

Target: T3, peptide on HLA-A*02:01 (human)
T3 peptide: SLLMWITQC
Experiment: activation reporter or marker

| Binder | binding result |
| --- | --- |
| B1 | no recognition |
| B2 | no recognition |
| B3 | no recognition |
| B4 | no recognition |
| B5 | no recognition |
| B6 | no recognition |
| B7 | no recognition |
